Experimental data: paper PMC11472046 (2024)
Changes are numbered by the printed parent chain. Names and notes keep the numbering of the source. Values belong to the binder of their own block, whether it stands above or below them.

How the values were obtained:
[1] = target: H3K9me3 mononucleosome (trimethyl-lysine at 9 (H3K9me3)); experiment: apparent K1/2 by EMSA
[2] = target: H3K9me0 mononucleosome; experiment: apparent K1/2 by EMSA

Kd [1]: 66 nM
Kd [2]: 134 nM
B1: Chp2-WT (recombinant) (natural protein)
chain: MVKSADLDLMNSIISESDENFSPPPFTVEEAENSINNKSSTASLESPQNGSWHPSLYGLSVPEKTHIQNSLDLYSHGNSGSQKTHNVSFSCEIRKVKSSKLSPISNMEDSEDKKEEDESSSYKNEFKSSSSASVSSNFEKTSGSDDHNSQSPVPLNEGFEYIASSGSEDKNSDEEFAVEMILDSRMKKDGSGFQYYLKWEGYDDPSDNTWNDEEDCAGCLELIDAYWESRGGKPDLSSLIRLTRSRARSSNEASYVEKDESSNSDDSISYKRRRSRNAANRITDYVDSDLSESSMKEKQSKIEKYMKSDKSSKNFKPPFQKKSWEDLVDCVKTVQQLDNGKLIAKIKWKNGYVSTHDNIIIHQKCPLKIIEYYEAHIKFT

Kd [1]: 145 nM
Kd [2]: 135 nM
B2: Chp2 W199A (recombinant) (natural protein)
chain: B1 chain with W199A
